Where “and” joins values, the source holds several entries; their conditions need not be identical. Equal entries are not always repeated.
B1: PF4: Platelet Factor 4, CXC chemokine; authentic natural human PF4 purified from platelets as comparator (protein)
chain: EAEEDGDLQCLCVKTTSQVRPRHITSLEVIKAGPHCPTAQLIATLKNGRKICLDLQAPLYKKIIKKLLES
B2: PF4var1: natural and recombinant versions of the human natural variant of the PF4 protein; 70 amino acid mature form, SEQ ID NO: 1 (protein, listed as Homo sapiens)
chain: EAEEDGDLQCLCVKTTSQVRPRHITSLEVIKAGPHCPTAQLIATLKNGRKICLDLQALLYKKIIKEHLES
modifications: mat_peptide (1)..(70) PFvar1

Experiments:
[1] = tested on: bFGF-induced angiogenesis (rat cornea neovascularization); experiment: Rat corneal micropocket assay for angiogenesis; type: in vivo
Protocol: In vivo angiogenesis was assessed using the rat cornea micropocket assay as previously described [Addison et al. cited above]. Briefly, reagents were diluted in PBS plus 0.25% serum albumin to their final concentration per pellet of Hydron casting solution (Hydro Med Sciences, New Brunswick N.J.). 5 μl aliquots were pipetted onto the flat surface of a sterile polypropylene specimen container and were allowed to polymerize overnight under UV light in a laminar flow hood. Prior to implantation, the pellets were rehydrated with normal saline. Animals were given 150 mg/kg ketamine and 250 μg/kg atropine, and the corneas were anesthetized with 0.5% proparacaine hydrochloride ophthalmic solution followed by implantation of the Hydron pellet into an intracorneal pocket (1-2 mm from the limbus). Six days after implantation, animals received heparin (1000 U) and ketamine (150 mg/kg) i.p. 30 min prior to sacrifice, followed by perfusion with 10 ml of colloidal carbon via the left ventricle. Corneas were then harvested and photographed. […] Sustained directional ingrowth of capillary sprouts and hairpin loops toward the implant were considered positive neovascularization responses.

murine melanoma cells = conditions: systemic treatment, mice injected i.v. with murine melanoma cells; cited from earlier work
[2] = tested on: Human lung microvascular endothelial cells (HMVEC-L); experiment: Endothelial cell chemotaxis assay (bFGF- or CXCL8-induced HMVEC migration); type: cell-based; conditions: for inhibition of CXCL8-induced HMVEC chemotaxis: CXCL8 80 ng/ml; for inhibition of the migration of the cells: at a concentration of 50 ng/ml; for inhibition of bFGF-induced HMVEC chemotaxis: bFGF 50 ng/ml; for migration of HMVEC toward bFGF or CXCL8 (FIG. 4 Panel C): test protein 50 ng/ml, bFGF 50 ng/ml or CXCL8 80 ng/ml
Protocol: Human lung microvascular endothelial cells (HMVEC-L) were obtained from Clonetics (Walkersville, Md.), and were cultured following the manufacturer's instructions in EBM-2 medium supplemented with the EGM-2-MV “bulletkit” containing FCS, ascorbic acid, hydrocortisone, fibroblast growth factor (FGF), vascular endothelial growth factor (VEGF), insulin-like growth factor I (IGF-I) and epidermal growth factor (EGF). Endothelial cell chemotaxis assays were performed as previously described [Addison et al. (2002) J Immunol 165, 5269-5277]. Cells were harvested by trypsinization, resuspended in EBM-2 medium without growth factors with 2% FCS added. An aliquot of 160 μl containing 5×10^5 cells/ml was added to each of the lower wells of a 12-well chemotaxis chamber (Neuro Probe Inc., Cabin John Md.). The chambers were assembled (by placing 0.1% gelatin coated 5 μm pore size filters over the lower wells, followed by a gasket and the upper chamber) and incubated at 37° C. in a CO2 incubator for 2 h in an inverted position. The chambers were then turned upright, and 100 μl aliquots of sample dilutions were added to the upper wells of the chamber. As endothelial cell chemoattractants CXCL8 and bFGF (both from Peprotech) were used. The chambers were placed in a 37° C. CO2 incubator for 2 h at which time the filters were removed, and subjected to Diff-Quik staining. The total number of migrated cells was counted in 15 separate fields of view under 400× power.

[3] = Heparin-Sepharose affinity chromatography (heparin affinity); type: binding; conditions: for salt concentration at elution from heparin-Sepharose column: linear NaCl gradient 0.05-2 M, pH 7.4
Protocol: For large scale PF4 production, outdated platelets (Red Cross blood transfusion centre, Belgium) were stimulated with 1 U/ml thrombin (Sigma, St. Louis, Mo.) for 2 h at 37° C. in PBS. The conditioned medium was subsequently purified by a purification procedure previously described [Struyf et al (2003), cited above, Van Damme et al. (1992) J Exp Med 176, 59-65; Struyf et al. (2000) in Balkwill, F. ed. Cytokine molecular biology, a practical approach. Oxford, UK, Oxford University Press, pp 73-88]. The conditioned media (1 to 5 liters) were first concentrated and partially purified by adsorption to silica (“Silica Matrex”; pore size 100 A, particle size 35-70 μm; Millipore, Billerica, Mass.; 10 g/l conditioned medium). After 2 h of magnetical stirring at 4° C., the silicic acid was sedimented by centrifugation and subsequently washed once with PBS and once with PBS containing 1 M NaCl pH 7.4. Elution of proteins from the silica matrix was done by magnetically stirring three consecutive times with 100 ml of PBS containing 1.4 M NaCl and 50% ethylene glycol pH 7.4 during 30 min at 4° C. A second elution with 0.3 M glycine/HCl pH 2.0 buffer (2×100 ml) was performed to improve recovery of chemokines. Subsequently, the pooled eluates (500 ml) were dialyzed against equilibration/loading buffer (50 mM Tris/HCl-50 mM NaCl, pH 7.4) before fractionation by heparin-Sepharose chromatography (Amersham Pharmacia Biotech, Uppsala, Sweden). Proteins were eluted from the column in a linear NaCl gradient (0.05-2 M NaCl in the loading buffer; 5 ml-fractions). For all fractions, the protein concentration was determined by a Coomassie blue G-250 binding assay using the Bio-Rad commercial kit (Bio-Rad Laboratories, Hercules, Calif.). […] Purified fractions were analyzed by SDS-PAGE under reducing conditions to determine purity. […]

B16 melanoma tumors = experiment: Intratumoral injection of B16 melanoma tumors; type: in vivo, athymic nu/nu mice; conditions: 1 μg recombinant human PF4var1, 6 intratumoral injections over 2 weeks, B16 melanoma in nu/nu mice
Protocol: Animal experiments were approved by the local animal ethics committee (University of Leuven), and conducted in conformity with the Belgian and European guidelines for the protection of animals used for scientific purposes. Experiments were performed with 6 to 8 weeks old female athymic nu/nu mice (NMRI background) kept in a specific pathogen-free environment (Elevage Janvier, Le Genest Saint Isle, France). Two consecutive experiments were performed, the first comprising 20 mice, the second 18 mice. B16 melanoma cells in log phase (2×10^6 cells resuspended in 200 μl of PBS) were injected subcutaneously on day 1 in the right dorsal flank. Animals were injected at the tumor site with 50 μl of test sample, i.e. endotoxin-free saline (0.9% NaCl, Baxter, Lessines, Belgium), 5 pg of natural human PF4 or 1 μg of recombinant human PF4var1 in saline. Treatment started on day 3, in total 6 intratumoral injections were administered three times a week over a period of 2 weeks. All animals were observed three times a week, the tumor dimensions were measured with calipers and tumor size was calculated (tumor volume=4/3Πab^2; a is the smallest diameter/2 and b is the largest diameter/2 in millimeters). At the end of the experiments tumor size was calculated more precisely after dissection of the tumor using the formula 4/3Πabc (a, b and c width/2, length/2 and depth/2, respectively). […]

[4] = 50 ng of the cytokine alone, six days after implantation
[5] = 50 ng combined with bFGF (50 ng)

Molecule	No of neg pellets (no neovascularization / total pellets implanted) [1, 4]	No of pos pellets (angiogenic response / total pellets implanted) [1, 4]	dose for optimal inhibition of metastases or lung weight (murine melanoma cells)	% inhibition of bFGF-induced angiogenesis [1, 5]	No of neg pellets (no neovascularization / total pellets implanted) [1, 5]	No of pos pellets (angiogenic response / total pellets implanted) [1, 5]	inhibition of CXCL8-induced HMVEC chemotaxis ([2]; test protein 300 ng/ml)	inhibition of the migration of the cells [2]	inhibition of migration of HMVEC ([2]; at concentrations as high as 300 ng/ml, toward bFGF or CXCL8)	inhibition of bFGF-induced HMVEC chemotaxis ([2]; test protein 300 ng/ml)	migration of HMVEC toward bFGF or CXCL8 (FIG. 4 Panel C) [2]	salt concentration at elution from heparin-Sepharose column [3]	tumor growth (B16 melanoma tumors)	inhibition of CXCL8-induced HMVEC chemotaxis ([2]; test protein 10-100 ng/ml)	potency on angiogenesis relative to PF4 ([2]; PF4var1 versus PF4)	inhibition of bFGF-induced HMVEC chemotaxis ([2]; test protein 10-100 ng/ml)	concentration giving an inhibition of 50% of the migration of HMVEC ([2]; chemotaxis of HMVEC toward bFGF or CXCL8)	heparin binding affinity compared with PF4 ([3]; based on elution at lower salt concentrations from heparin-Sepharose)
bFGF: Fibroblast growth factor used as endothelial cell chemoattractant and angiogenesis inducer (Peprotech) [reference compound]	0/25	25/25																
B1	17/22	5/22	> 5 mg PF4 per kg of body weight	23%	5 of 22 and 5/22	17/22	failed to inhibit	~80%	practically no inhibition	failed to inhibit	reduce migration	1.6-1.8 M NaCl						
B2	21/22	1/22		73%	16 of 22 and 16/22	6/22		~100%			reduce migration	1-1.4 M NaCl	capable of reducing tumor growth	completely blocked	100 fold	completely blocked	around 2.5 ng/ml	lower affinity than PF4

Reference: patent US20090011981A1, “Novel Inhibitors of Angiogenesis” (K.U. LEUVEN RESEARCH & DEVELOPMENT, priority 2004, published 2009)
